# T1: UL128 expressed from MVA in BHK-21 cells (human cytomegalovirus, UniProt P16837 28-171)
# T1 construct: whole, on cells
# T1 sequence: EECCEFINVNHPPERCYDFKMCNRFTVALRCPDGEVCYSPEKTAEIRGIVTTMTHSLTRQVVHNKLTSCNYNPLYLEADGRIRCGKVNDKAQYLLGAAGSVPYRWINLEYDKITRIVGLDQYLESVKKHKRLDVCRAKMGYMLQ
# B1: 54E11 (antibody, V domains shown)
# VH: QIQLVQSGPELKKPGETVKISCKASGYTFTSYGMNWVKQAPGKGLKWMGWINTYTGEPTYADDFKGRFAFSLETSASTAYLQINNLKNEDTATYFCAREHYYGINPLLGCWGQGTTLTVSS
# VL: DIQMTQTTSSLSASLGDRVTISCSASQGISNYLNWYQQKPDGTVKLLIYDTSSLHSGVPSRFSGSGSGTDYSLTISNLEPEDIATYYCQQYSKLPYTFGGGTKLEIK
# notes: also called NAb 54E11
# B2: 21F6 (antibody, V domains shown)
# VH: B1 VH
# VL: B1 VL
# notes: also called NAb 21F6
# Assays:
# [1] = molecular target: gH/gL/UL128/UL130/UL131A pentamer complex (PC) of HCMV strain TB40/E virus (human cytomegalovirus strain TB40/E); assay: cell-based or functional assay
# [2] = molecular target: gH/gL/UL128/UL130/UL131A pentamer complex (PC) of HCMV strain TR virus (human cytomegalovirus strain TR); assay: cell-based or functional assay
# [3] = molecular target: T1, UL128 expressed from MVA in BHK-21 cells; assay: intracellular FC, MVA-infected BHK-21
# Method: (§1) NAb subunit specificity was evaluated by staining BHK-21 cells infected with different MVA recombinants. One or more vectors were used to co-infect BHK-21 at an MOI of 5. […] Four hours post infection cells were fixed and permeabilized using Cytofix/Cytoperm solution (BD Biosciences). NAbs (1 mg/ml) were diluted 1:500 in perm/wash buffer (BD) and added to the cells for 1 hour at 4° C. […] Cells were washed again and resuspended in PBS/0.1% BSA. Fifteen thousand events were collected using the Gallios Flow Cytometer (Beckman Coulter, Miami, Fla., USA) and analyzed with FlowJo Software (Tree Star, Ashland, Oreg., USA). Uninfected cells and cells infected with MVA-Venus were used as controls. GFP expression was analyzed for confirming MVA infection since all the constructs contain a GFP expression cassette (36, 62).
# (§2) In order to determine the antigen specificity of the vaccine-derived NAbs, intracellular flow cytometry (FC) staining of permeabilized BHK-21 cells infected with MVA expressing single subunits or combinations of two or more subunits of the PC was evaluated.
# [4] = molecular target: T2, UL130 expressed from MVA in BHK-21 cells (human cytomegalovirus, UniProt P16772 1-214); assay: intracellular FC, MVA-infected BHK-21
# T2 construct: whole, on cells
# Method: as §1, §2
# [5] = molecular target: T3, UL131A expressed from MVA in BHK-21 cells (human cytomegalovirus, UniProt F5HET4 19-129); assay: intracellular FC, MVA-infected BHK-21
# T3 construct: whole, on cells
# Method: as §1, §2
# [6] = molecular target: T4, UL128/UL130 co-expressed from MVA in BHK-21 cells (human cytomegalovirus, UniProt P16837 28-171; P16772 1-214); assay: intracellular FC, MVA-infected BHK-21
# T4 construct: whole, on cells
# Method: as §1, §2
# [7] = molecular target: T5, UL128/UL131A co-expressed from MVA in BHK-21 cells (human cytomegalovirus, UniProt P16837 28-171; F5HET4 19-129); assay: intracellular FC, MVA-infected BHK-21
# T5 construct: whole, on cells
# Method: as §1, §2
# [8] = molecular target: T6, gH expressed from MVA in BHK-21 cells (human cytomegalovirus, UniProt P12824 24-743); assay: intracellular FC, MVA-infected BHK-21
# T6 construct: whole, on cells
# Method: as §1, §2
# [9] = molecular target: T7, gH/gL co-expressed from MVA in BHK-21 cells (human cytomegalovirus, UniProt P12824 24-743; P16832 31-278); assay: intracellular FC, MVA-infected BHK-21
# T7 construct: whole, on cells
# Method: as §1, §2
# [10] = molecular target: T8, gH/gL/UL128 co-expressed from MVA in BHK-21 cells (human cytomegalovirus, UniProt P12824 24-743; P16832 31-278; P16837 28-171); assay: intracellular FC, MVA-infected BHK-21
# T8 construct: whole, on cells
# Method: as §1, §2
# [11] = molecular target: T9, gH/gL/UL130 co-expressed from MVA in BHK-21 cells (human cytomegalovirus, UniProt P12824 24-743; P16832 31-278; P16772 1-214); assay: intracellular FC, MVA-infected BHK-21
# T9 construct: whole, on cells
# Method: as §1, §2
# [12] = molecular target: T10, gH/gL/UL131A co-expressed from MVA in BHK-21 cells (human cytomegalovirus, UniProt P12824 24-743; P16832 31-278; F5HET4 19-129); assay: intracellular FC, MVA-infected BHK-21
# T10 construct: whole, on cells
# Method: as §1, §2
# [13] = molecular target: T11, gH/gL/UL128/UL130 co-expressed from MVA in BHK-21 cells (human cytomegalovirus, UniProt P12824 24-743; P16832 31-278; P16837 28-171; P16772 1-214); assay: intracellular FC, MVA-infected BHK-21
# T11 construct: whole, on cells
# Method: as §1, §2
# [14] = molecular target: T12, gH/gL/UL128/UL131A co-expressed from MVA in BHK-21 cells (human cytomegalovirus, UniProt P12824 24-743; P16832 31-278; P16837 28-171; F5HET4 19-129); assay: intracellular FC, MVA-infected BHK-21
# T12 construct: whole, on cells
# Method: as §1, §2
# [15] = molecular target: T13, gH/gL/UL128/UL130/UL131A pentamer complex expressed from MVA-PC in BHK-21 cells (human cytomegalovirus, UniProt P12824 24-743; P16832 31-278; P16837 28-171; P16772 1-214; F5HET4 19-129); assay: FC, biotinylated NAb titrated on MVA-PC-infected BHK-21 (cell surface PC)
# T13 construct: whole, on cells
# [16] = molecular target: T13, gH/gL/UL128/UL130/UL131A pentamer …; assay: FC competition, MVA-PC BHK-21; unlabelled row Ab; competitor: biotinylated 1B2
# [17] = molecular target: T13, gH/gL/UL128/UL130/UL131A pentamer …; assay: FC competition, MVA-PC BHK-21; unlabelled row Ab; competitor: biotinylated 12E2
# [18] = molecular target: T13, gH/gL/UL128/UL130/UL131A pentamer …; assay: FC competition, MVA-PC BHK-21; unlabelled row Ab; competitor: biotinylated 13B5
# [19] = molecular target: T13, gH/gL/UL128/UL130/UL131A pentamer …; assay: FC competition, MVA-PC BHK-21; unlabelled row Ab; competitor: biotinylated 21F6
# [20] = molecular target: T13, gH/gL/UL128/UL130/UL131A pentamer …; assay: FC competition, MVA-PC BHK-21; unlabelled row Ab; competitor: biotinylated 18F10
# [21] = molecular target: T13, gH/gL/UL128/UL130/UL131A pentamer …; assay: FC competition, MVA-PC BHK-21; unlabelled row Ab; competitor: biotinylated 54E11
Binder,"IC50, inhibition of TB40/E cell-to-cell spread in ARPE-19 [1] [µg/mL]","IC50, neutralization of TB40/E infection of ARPE-19 [1] [µg/mL]","IC50, neutralization of TB40/E infection of CTB [1] [µg/mL]","IC50, neutralization of TB40/E infection of HUVEC [1] [µg/mL]","IC50, neutralization of TB40/E infection of MRC-5 [1] [µg/mL]","IC50, inhibition of TR cell-to-cell spread in ARPE-19 [2] [µg/mL]","IC50, neutralization of TR infection of ARPE-19 [2] [µg/mL]","IC50, neutralization of TR infection of HUVEC [2] [µg/mL]","IC50, neutralization of TR infection of MRC-5 [2] [µg/mL]",binding result [3],binding result [4],binding result [5],binding result [6],binding result [7],binding result [8],binding result [9],binding result [10],binding result [11],binding result [12],binding result [13],further results
B1,17,0.0034,0.0249,0.0046,> 25,18,0.0034,0.0059,> 25,no binding,no binding,no binding,no binding,no binding,no binding,no binding,no binding,no binding,no binding,no binding,binding result [14]: no binding; EC50 [15]: 0.51 nM; Binding Inhibition (%) [16]: 0%; Binding Inhibition (%) [17]: 0%; Binding Inhibition (%) [18]: 0%; Binding Inhibition (%) [19]: 100%; Binding Inhibition (%) [20]: 0%; Binding Inhibition (%) [21]: 100%
B2,18,0.0026,0.0307,0.004,> 25,19,0.0035,0.0059,> 25,no binding,no binding,no binding,no binding,no binding,no binding,no binding,no binding,no binding,no binding,no binding,binding result [14]: no binding; EC50 [15]: 0.62 nM; Binding Inhibition (%) [16]: 0%; Binding Inhibition (%) [17]: 0%; Binding Inhibition (%) [18]: 0%; Binding Inhibition (%) [19]: 100%; Binding Inhibition (%) [20]: 0%; Binding Inhibition (%) [21]: 100%

# Reference: patent US20180230200A1 (CITY OF HOPE, published 2018)
